Substitutions are numbered along the chain they refer to.
T1: Murine Ecto-TMEM219 (murine, UniProt Q9D123 43-203)
T1 construct: also called mEcto-TMEM
T1 sequence: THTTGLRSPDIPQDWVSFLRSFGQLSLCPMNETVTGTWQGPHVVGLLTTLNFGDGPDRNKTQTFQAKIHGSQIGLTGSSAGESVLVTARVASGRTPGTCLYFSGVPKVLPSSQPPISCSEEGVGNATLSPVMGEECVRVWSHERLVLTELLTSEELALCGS

T2: Human Ecto-TMEM219 (human, UniProt Q86XT9 43-204)
T2 construct: also called hEcto-TMEM
T2 sequence: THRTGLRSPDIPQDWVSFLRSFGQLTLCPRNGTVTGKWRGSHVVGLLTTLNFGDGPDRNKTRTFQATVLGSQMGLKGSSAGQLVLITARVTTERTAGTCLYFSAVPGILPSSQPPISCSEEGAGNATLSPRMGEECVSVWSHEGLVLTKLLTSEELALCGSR

B1: TM1 (antibody, V domains shown)
VH: QVQLVESGGGVVQPGRSLRLSCAASGFTFSTYGIHWVRQAPGKGLEWVAVIWYDGYNKYYVDSVKGRFTISRDNSENTVYLQMNSLRTEDTAVYYCAREGWFGKLLSALDIWGQGTMVTVSS
VL: VIQMTQSPSSLSASVGDRVTITCRASQGIRNDLGWYLQKPGKAPELLIYPASSLQSGVPSRFSGSGSGTDFTLTISSLQPEDFATYYCLQDYNYPFTFGQGTKLEIK
notes: constant regions are not tied to it; also called anti-TMEM219 TM1
B2: TE10 (antibody, V domains shown)
VH: QVQLVESGGGVVQPGRSLRLSCAASGFTFSSYGMHWVRQAPGKGLEWVAVIWYDGSNKYYADSVKGRFTISRDNSKNTLYLQMNSLRAEDTAVYYCAREGRGMDVWGQGTTVTVSS
VL: QPVLTQSSSASASLGSSVKLTCTLSSGHSSYIIAWHQQQPGKAPRYLMKLEGSGSYNKGSGVPDRFSGSSSGADRYLTISNLQFEDEADYYCETWDSNTPHAVFGGGTQLTAL
B3: TC05 (antibody, human IgG4, V domains shown)
VH: QIQLVQSGAEVKQPGASVSVSCAASGYTFTSYGISWVRQAPGQGLEWMGWISAYNGNTNYAQKLQGRVTMTTDTSTSTAYMELSSLRSDDTAVYYCARWGRWLAHDYWGQGTLVTVSS
VL: QAVLTQPPSVSVSPGQTASITCSGDKLGNKNAYWYQQKPGQSPVLVMYQSTRRPSGIPERFSASNSGNTATLTISGTQAMDEADYYCQAWDSSSGWEVFGGGTKLTVL
B4: TC03 (antibody, human IgG4, V domains shown)
VH: B3 VH
VL: B3 VL with D91L
B5: TC01 (antibody, V domains shown)
VH: B3 VH with Q13K, S19K, A23K, S84R
VL: B3 VL
notes: also called anti-TMEM219 TC01; TCO1
B6: TC04 (antibody, human IgG4, V domains shown)
VH: B3 VH
VL: B3 VL with M80E

Legend:
[1] = molecular target: TMEM219 on human beta cells (Betalox-5) and human islets (human) (UniProt Q86XT9); assay: cell-based or functional assay
Murine Ecto-TMEM219 = molecular target: T1, Murine Ecto-TMEM219; assay: Octet BLI, antibody captured via Fc on biosensor, antigen at 150 nM
Description: (§1) The binding affinity measurements were performed using an Octet instrument (Octet BMIA), which is a Biolayer Interferometry (BLI) platform based on Biomolecular Interaction Analysis. To establish the assay, the target monoclonal antibody (30 μg/ml in PBS) was immobilized via Fc on the Anti-Mouse IgG Fc Capture (AMC) or Anti-Human IgG Fc Capture (AMC) biosensors and the interaction with the antigen, human and murine Ecto-TMEM219 (Genescript's customized protein service) at 150 nM was measured.

Human Ecto-TMEM219 [2] = molecular target: T2, Human Ecto-TMEM219; assay: as above
Description: as §1

Human Ecto-TMEM219 [3] = molecular target: T2, Human Ecto-TMEM219; assay: ELISA, ectoTMEM coated at 5 µg/ml, antibody dilution series, anti-human-Fc HRP detection
Description: The binding activity of the purified IgG4 (TC03, TC04, TC05) to the recombinant ectoTMEM protein was measured by ELISA. In brief, ectoTMEM was diluted in PBS to 5 μg/ml and coated onto 96-well ELISA plates (100 μl/well) for 1 h at RT. After blocking and washing of the plates, an antibody dilution series was added to the plates and incubated for 1 h at RT. After washing of the plates, bound antibodies were detected via a secondary anti-human-Fc HRP-conjugated antibody. After another washing step, TMB reaction was performed, stopped with sulfuric acid and absorbance was measured. Based on the absorbance readings, an EC50 of the saturating antibodies was calculated.

Chain of TMEM219 on human beta cells (Betalox-5) and human islets (human) (Q86XT9 39-240): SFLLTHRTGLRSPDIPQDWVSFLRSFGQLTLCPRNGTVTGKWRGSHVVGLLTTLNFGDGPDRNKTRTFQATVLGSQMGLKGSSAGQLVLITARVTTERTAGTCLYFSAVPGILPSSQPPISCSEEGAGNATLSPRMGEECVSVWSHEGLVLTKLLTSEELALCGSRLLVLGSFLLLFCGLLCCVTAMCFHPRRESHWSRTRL

Molecule | Kd (Human Ecto-TMEM219 [2]) | EC50 (Human Ecto-TMEM219 [3]) | also measured
Recombinant human IGFBP3 (from UniProt P17936 28-291) (ligand) |  |  | CASP8 mRNA upregulation in beta cells cultured with IGFBP3 [1]: 70%; cell death of beta cells challenged with IGFBP3 [1]: 30%
B1 | < 0.001 nM |  | Kd (Murine Ecto-TMEM219): < 0.001 nM
B2 | < 0.001 nM |  | 
B3 |  | 0.0791 µg/mL | 
B4 |  | 0.0647 µg/mL | 
B5 | 20 nM |  | Kd (Murine Ecto-TMEM219): 30 nM
B6 |  | 0.0898 µg/mL | 
